# Results: patent US20200223919A1 (CYTOMX THERAPEUTICS, published 2020)
# T1: human CD166 (human, UniProt Q13740 28-583)
# T1 construct: whole, on cells; Endogenous protein detected by IHC on fixed, paraffin-embedded cells and tissues, and by Western blot of cell lysates; also called hCD166
# T1 sequence (looked up): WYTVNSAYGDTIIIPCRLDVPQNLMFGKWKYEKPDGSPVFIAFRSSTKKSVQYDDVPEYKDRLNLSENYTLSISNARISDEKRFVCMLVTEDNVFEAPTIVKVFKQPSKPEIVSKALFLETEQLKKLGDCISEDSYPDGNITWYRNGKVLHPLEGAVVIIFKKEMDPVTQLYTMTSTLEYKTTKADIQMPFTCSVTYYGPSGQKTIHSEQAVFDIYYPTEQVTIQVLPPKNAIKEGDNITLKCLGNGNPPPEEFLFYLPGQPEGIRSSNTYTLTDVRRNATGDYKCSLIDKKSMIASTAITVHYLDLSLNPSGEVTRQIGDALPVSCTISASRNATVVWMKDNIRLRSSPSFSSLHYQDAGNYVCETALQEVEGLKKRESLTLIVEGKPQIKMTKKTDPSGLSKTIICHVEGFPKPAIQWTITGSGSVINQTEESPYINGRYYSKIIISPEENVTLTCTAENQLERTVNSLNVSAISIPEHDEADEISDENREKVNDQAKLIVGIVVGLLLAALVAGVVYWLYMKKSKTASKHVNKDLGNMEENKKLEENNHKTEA
# T2: Peptide A, amino acid residues 550 to 569 of human CD166 (human)
# T2 construct: Coated at 100 or 200 ng/well with 0.9 mg/mL BSA
# T2 peptide: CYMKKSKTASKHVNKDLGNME
# T3: Peptide B, amino acid residues 565 to 583 of human CD166 (human)
# T3 construct: Coated at 100 or 200 ng/well with 0.9 mg/mL BSA
# T3 peptide: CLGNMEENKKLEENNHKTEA
# Assays:
# human CD166 = biological target: T1, human CD166; assay: IHC on FFPE HCC1806 cells, supernatant at 10 µg/mL IgG
# Description: As shown in the exemplary IHC images of FIGS. 1-4, formalin-fixed paraffin-embedded (FFPE) human tumor cell lines (triple-negative breast cancer-derived cell line HCC1806 and breast ductal carcinoma-derived cell line BT-20) were prepared and blocked using standard protocols, and then incubated with the indicated hybridoma supernatents (Ab3, Ab6, Ab2, Ab1, Ab5, Ab7, Ab4, or Ab8 of the present disclosure) at 10 μg/mL IgG for 60 minutes are room temperature. As a control, FFPE samples were also incubated with ABCAM® EPR2759(2)/ab109215 anti-hCD166 rabbit monoclonal antibody at 5 μg/mL. Detection of bound primary antibody was performed by subsequent incubation with biotinylated-conjugated anti-mouse IgG antibody (for the hybridoma supernatents) or biotinylated-conjugated anti-rabbit IgG antibody (for the ABCAM® antibody), followed by addition of avidin-horseradish peroxidase (HRP) (Vectastain Elite ABC HRP Kit, Vector Laboratories) to form the avidin-biotin-HRP complex, followed by addition of a 3,3′-diaminobenzidine substrate (DAB Plus, Dako). Tissues were counterstained with Hematoxylin (Fisher Scientific).
# [1] = biological target: T2, Peptide A, amino acid residues 550 to …; assay: ELISA, 200 ng/well peptide with 0.9 mg/mL BSA; expanded hybridoma clone supernatant
# Text: (§1) B cells from each of Mouse #2 and Mouse #3 were fused in a combined manner to generate hybridomas in accordance with methods known in the art. Hybridomas were cloned and ˜1100 clone supernatants were screened against the each of the human CD166-derived peptides using a Direct EIA format using a goat anti-IgG gamma chain-specific secondary antibody coupled to horseradish peroxidase (HRP) (Millipore, Cat. No. AP503P. Following the initial screen, 136 clones were selected for a further confirmatory screen, of which forty (40) were selected for expansion. The expanded clones were assayed for mouse IgG levels using anti-mouse sensors in an Octet RED96 system (Pall ForteBio) and ELISA (200 ng/well of peptides A or B with 0.9 mg/mL BSA). Candidates included Ab1 (also referred to herein as “Example anti-CD166 ICD antibody 1”), Ab2 (also referred to herein as “Example anti-CD166 ICD antibody 2”), Ab3, Ab4, Ab5, Ab6, Ab7, and Ab8. Five candidates (Ab1, Ab2, Ab3, Ab4, and Ab5) shown below in Table 4 were selected.
# [2] = biological target: T3, Peptide B, amino acid residues 565 to …; assay: as above
# Text: as §1
binding result (human CD166),A620 [1],A620 [2],Binder
binds,0.162 A620,3.23 A620,"Ab1 anti-hCD166 mouse monoclonal antibody (antibody, mouse IgG1, kappa, also called recombinant Ab1) heavy: EVQLQQSGAELVKPGASVKLSCTASGFNIKDYYMHWVKQRTEQGLEWIGKIDPENGETKYAPKFQGKATITADTSSSTAYLQLSSLTSEDTAVYYCAREGFMDYWGQGASVTVSSAKTTPPSVYPLAPGSAAQTNSMVTLGCLVKGYFPEPVTVTWNSGSLSSGVHTFPAVLQSDLYTLSSSVTVPSSTWPSQTVTCNVAHPASSTKVDKKIVPRDCGCKPCICTVPEVSSVFIFPPKPKDVLTITLTPKVTCVVVDISKDDPEVQFSWFVDDVEVHTAQTQPREEQFNSTFRSVSELPIMHQDWLNGKEFKCRVNSAAFPAPIEKTISKTKGRPKAPQVYTIPPPKEQMAKDKVSLTCMITDFFPEDITVEWQWNGQPAENYKNTQPIMDTDGSYFVYSKLNVQKSNWEAGNTFTCSVLHEGLHNHHTEKSLSHSPGK light: DVVMTQTPLSLPVSLGDQASISCRSSQSLVHSNGNTYLHWYLQKPGQSPKLLIYKVSNRFSGVPDRFSGSGSGTDFTLKISRVEAEDLGVYFCSQSTFVPLTFGAGTKLELKRADAAPTVSIFPPSSEQLTSGGASVVCFLNNFYPKDINVKWKIDGSERQNGVLNSWTDQDSKDSTYSMSSTLTLTKDEYERHNSYTCEATHKTSTSPIVKSFNRNEC"
binds,0.067 A620,3.02 A620,"Ab2 anti-hCD166 mouse monoclonal antibody (antibody, mouse IgG1, kappa, Tested as hybridoma supernatant and as antibody purified from hybridoma supernatant) heavy: EVQLQQSGAELVKPGASVKLSCTASGFNIKDYYMHWVRQRTEQGLEWIGKIDPEDGETKYAPKFQGKATITADTSSNTAYLQLSSLTSEDTAVYYCAREGFMDYWGQGTSVTVSSAKTTPPSVYPLAPGSAAQTNSMVTLGCLVKGYFPEPVTVTWNSGSLSSGVHTFPAVLQSDLYTLSSSVTVPSSTWPSQTVTCNVAHPASSTKVDKKIVPRDCGCKPCICTVPEVSSVFIFPPKPKDVLTITLTPKVTCVVVDISKDDPEVQFSWFVDDVEVHTAQTQPREEQFNSTFRSVSELPIMHQDWLNGKEFKCRVNSAAFPAPIEKTISKTKGRPKAPQVYTIPPPKEQMAKDKVSLTCMITDFFPEDITVEWQWNGQPAENYKNTQPIMDTDGSYFVYSKLNVQKSNWEAGNTFTCSVLHEGLHNHHTEKSLSHSPGK light: DNVMTQTPLSLSVSLGDQASISCRSSQSLVHSNGNTYLHWYLQKPGQSPKLLIYKVSNRFSGVPDRFSGSGSGTDFTLKISRVEAEDLGVYFCSQSTHVPLTFGAGTKLELKRADAAPTVSIFPPSSEQLTSGGASVVCFLNNFYPKDINVKWKIDGSERQNGVLNSWTDQDSKDSTYSMSSTLTLTKDEYERHNSYTCEATHKTSTSPIVKSFNRNEC"
